{"source": "paper PMC7082061", "about": "(PLoS Pathogens, 2020)", "biological_target": "full-length wild type MOKV G (MOKV G WT) (Mokola virus) (UniProt P0C572)", "test": "negative staining electron microscopy", "data": [{"substance": "full-length wild type MOKV G (MOKV G WT) (from UniProt P0C572 20-522) (natural protein)", "values": [{"measurement": "stoichiometry N", "result": 3}]}]}
